Test results from paper doi:10.1101/386532 (bioRxiv, 2018).

B1: IST1(1–189) (IST1NTD) (domain or fragment, human, UniProt P53990 1-189, looked up)
chain: MLGSGFKAERLRVNLRLVINRLKLLEKKKTELAQKARKEIADYLAAGKDERARIRVEHIIREDYLVEAMEILELYCDLLLARFGLIQSMKELDSGLAESVSTLIWAAPRLQSEVAELKIVADQLCAKYSKEYGKLCRTNQIGTVNDRLMHKLSVEAPPKILVERYLIEIAKNYNVPYEPDSVVMAEAPP

Tests used:
GST-CHMP1B(4–199) (WT) = molecular target: T1, GST-CHMP1B(4–199) (WT) (human, UniProt Q7LBR1 4-199); assay: SPR
T1 sequence (looked up): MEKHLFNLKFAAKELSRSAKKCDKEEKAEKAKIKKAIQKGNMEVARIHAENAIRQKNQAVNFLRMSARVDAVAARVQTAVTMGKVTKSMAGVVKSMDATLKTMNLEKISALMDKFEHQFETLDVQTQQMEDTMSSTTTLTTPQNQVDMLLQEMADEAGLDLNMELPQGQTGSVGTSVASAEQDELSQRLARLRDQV

[1] = molecular target: the molecule itself; assay: negative stain EM of filament assembly
IST1(1–189) (IST1NTD) = molecular target: B1; assay: SPR
cryo-EM structure = molecular target: the molecule itself; assay: cryo-EM structure

With B1 the Kd (GST-CHMP1B(4–199) (WT)) was 92 µM and the binding result [1] was “binds”.

B2: GST-CHMP1Bα6 (CHMP1B MIM1 element alone, residues 186–199) (peptide, UniProt Q7LBR1 186-199, looked up)
chain: DELSQRLARLRDQV
For B2, the Kd (IST1(1–189) (IST1NTD)) was 91 µM.

B3: CHMP1B(4–199) for structure determination (from His-SUMO fusion) (natural protein, human, UniProt Q7LBR1 4-199, looked up)
chain: MEKHLFNLKFAAKELSRSAKKCDKEEKAEKAKIKKAIQKGNMEVARIHAENAIRQKNQAVNFLRMSARVDAVAARVQTAVTMGKVTKSMAGVVKSMDATLKTMNLEKISALMDKFEHQFETLDVQTQQMEDTMSSTTTLTTPQNQVDMLLQEMADEAGLDLNMELPQGQTGSVGTSVASAEQDELSQRLARLRDQV
B3: binds (cryo-EM structure).
